The source of these data is article PMC3255974.

A short description of the series: parallel wall flow chamber, 293T α4β7 transfectants. The settings on record: glycan lost; control: wild type.

B1: integrin β7 subunit: N260A (protein)
parent chain: MVALPMVLVLLLVLSRGESELDAKIPSTGDATEWRNPHLSMLGSCQPAPSCQKCILSHPSCAWCKQLNFTASGEAEARRCARREELLARGCPLEELEEPRGQQEVLQDQPLSQGARGEGATQLAPQRVRVTLRPGEPQQLQVRFLRAEGYPVDLYYLMDLSYSMKDDLERVRQLGHALLVRLQEVTHSVRIGFGSFVDKTVLPFVSTVPSKLRHPCPTRLERCQSPFSFHHVLSLTGDAQAFEREVGRQSVSGNLDSPEGGFDAILQAALCQEQIGWRNVSRLLVFTSDDTFHTAGDGKLGGIFMPSDGHCHLDSNGLYSRSTEFDYPSVGQVAQALSAANIQPIFAVTSAALPVYQELSKLIPKSAVGELSEDSSNVVQLIMDAYNSLSSTVTLEHSSLPPGVHISYESQCEGPEKREGKAEDRGQCNHVRINQTVTFWVSLQATHCLPEPHLLRLRALGFSEELIVELHTLCDCNCSDTQPQAPHCSDGQGHLQCGVCSCAPGRLGRLCECSVAELSSPDLESGCRAPNGTGPLCSGKGHCQCGRCSCSGQSSGHLCECDDASCERHEGILCGGFGRCQCGVCHCHANRTGRACECSGDMDSCISPEGGLCSGHGRCKCNRCQCLDGYYGALCDQCPGCKTPCERHRDCAECGAFRTGPLATNCSTACAHTNVTLALAPILDDGWCKERTLDNQLFFFLVEDDARGTVVLRVRPQEKGADHTQAIVLGCVGGIVAVGLGLVLAYRLSVEIYDRREYSRFEKEQQQLNWKQDSNPLYKSAITTTINPRFQEADSPTL
For the protein B1, the “other: rolling cell adhesion in shear flow” value is recorded as “increases”.
